Legend:
[1] = target: T1, recombinant human CD40 monomer (human, UniProt P25942 21-193); assay: BLI (Octet RED); antibody supernatant captured on protein A sensors, huCD40-monomer in solution
T1 construct: also called huCD40-monomer; soluble human CD40
Text: The closest matching human germline region sequence was selected for each mouse variable domain, and these human framework regions were used to replace murine frameworks in the “CDR graft” versions of the antibodies. Additional amino acid substitutions, such as framework back-mutations, were then made as necessary to restore the binding affinity of the humanized antibody. Further amino acid substitutions were made to eliminate sequence liabilities. The sequence relationships between the various forms of the antibodies of the present invention are provided at Table 6. The binding of various agonistic anti-huCD40 antibodies to soluble human CD40 was determined by Biolayer Interferometry (BLI) analysis using a Fortebio Octet RED (Rapid system—Extended Detection) label-free interaction analysis instrument. All studies were performed in 10 mM NaₓPO₄, 130 mM NaCl, 0.05% Surfactant P20 (pH 7.1) at 25° C. Briefly, anti-huCD40 antibody supernatants (diluted to 10 μg/ml or captured undiluted if supernatant concentration was less than 10 μg/ml) were captured on protein A coated biosensors (Pall Fortebio #18-5010) using a loading time of 90 s and shake speed of 1000 rpm. Supernatants were first screened for binding to 1 μM recombinant human CD40 monomer (huCD40-monomer) using 180 s association and dissociation times, at 1000 rpm, with two 15 s conditioning steps using 10 mM glycine pH 1.5 in between binding cycles.

[2] = target: T1, recombinant human CD40 monomer; assay: BLI (Octet RED); run in parallel with 5F11-45
[3] = target: T2, FcγRIIb (human, UniProt P31994 43-217, limits assumed); assay: BLI (ForteBio Octet), %Rmax at 1 µM hCD32b/FcγRIIb
T2 construct: Construct not described; also called hCD32b/FcγRIIb
T2 sequence (looked up): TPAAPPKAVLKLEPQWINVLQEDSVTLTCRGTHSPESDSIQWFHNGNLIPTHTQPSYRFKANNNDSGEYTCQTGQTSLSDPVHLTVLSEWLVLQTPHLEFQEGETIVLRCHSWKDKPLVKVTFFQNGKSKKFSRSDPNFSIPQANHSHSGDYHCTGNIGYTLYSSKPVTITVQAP
Experimental: (§1) See Example 8. Antibody names including “-sup” represent supernatants from antibody producing cells, whereas others are purified antibodies. Data are presented as percentages of a maximum receptor binding value for each combination of antibody and receptor, as measured in a ForteBio Octet system. See, e.g., Example 3. Each cluster of three bars represents, from left to right, binding to hCD32a/FcγRIIa-H131 (10 μM) (hatched bars), […] (10 μM) (black bars), and hCD32b/FcγRIIb (1 μM) (white bars).
(§2) Supernatants were obtained from cells expressing these antibodies and assayed for binding to hCD32/FcγRII. Selected purified antibodies without mutations at position 270 were used as controls.

[4] = target: T3, FcγRIIa-R131 (human, UniProt P12318 34-218, limits assumed); assay: BLI (ForteBio Octet), %Rmax at 10 µM FcγRIIa-R131 (CD32a-R131 on the sheet)
T3 construct: Construct not described
T3 sequence (looked up): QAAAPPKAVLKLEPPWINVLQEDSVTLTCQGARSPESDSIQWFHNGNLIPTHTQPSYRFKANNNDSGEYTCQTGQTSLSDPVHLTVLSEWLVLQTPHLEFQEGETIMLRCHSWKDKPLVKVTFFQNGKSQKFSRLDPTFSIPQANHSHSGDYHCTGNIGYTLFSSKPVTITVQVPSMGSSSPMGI
Experimental: as §1, §2

[5] = target: T4, FcγRIIa-H131 (human, UniProt P12318 34-218, limits assumed); assay: BLI (ForteBio Octet), % of maximum receptor binding (%Rmax) at 10 µM hCD32a/FcγRIIa-H131
T4 construct: Construct not described; also called hCD32a/FcγRIIa-H131
T4 sequence (looked up): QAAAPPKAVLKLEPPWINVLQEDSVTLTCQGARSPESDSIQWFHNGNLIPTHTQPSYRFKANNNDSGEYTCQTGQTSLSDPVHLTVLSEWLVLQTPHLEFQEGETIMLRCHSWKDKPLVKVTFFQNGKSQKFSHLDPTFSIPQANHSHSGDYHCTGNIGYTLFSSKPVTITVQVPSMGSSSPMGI
Experimental: as §1, §2

[6] = target: T4, FcγRIIa-H131; assay: BLI (ForteBio Octet), %Rmax at 10 µM hCD32a/FcγRIIa-H131
Experimental: as §1, §2

T1 sequence (P25942 21-193 limits assumed): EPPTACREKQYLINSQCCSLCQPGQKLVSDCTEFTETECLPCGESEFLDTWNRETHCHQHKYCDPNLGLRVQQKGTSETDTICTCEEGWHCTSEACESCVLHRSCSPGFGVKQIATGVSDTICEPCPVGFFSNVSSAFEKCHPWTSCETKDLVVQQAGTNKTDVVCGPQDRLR

B1: 5F11 (parental) (antibody, V domains shown)
VH: QVQLQQSAAELARPGASVKMSCKASGYTFTDLSMHWIKQRPGQGLEWIGYITPSSGYTAYNQKFKGKTTLTADKSSSTAYMQLSSLTSEDSAVYYCARLILQRGAYWGQGTLVTVSA
VL: DIVLTQSPASLAVSLGQRATISCRASKNVDSYGNSFMHWYQQKPGQPPKLLIYRASNLESGIPARFGGSGSGTDFTLTINPVEADDVATYYCQQSNEDPLTFGAGTKLELK
notes: Mouse variable domains; also called 1802.3717.5F11.A11.E7; mAb 5F11
Kd [1]: 4.7 nM | Kd [2]: 8.2 nM

B2: 12D6-24 V4 (antibody, human IgG1, kappa)
heavy: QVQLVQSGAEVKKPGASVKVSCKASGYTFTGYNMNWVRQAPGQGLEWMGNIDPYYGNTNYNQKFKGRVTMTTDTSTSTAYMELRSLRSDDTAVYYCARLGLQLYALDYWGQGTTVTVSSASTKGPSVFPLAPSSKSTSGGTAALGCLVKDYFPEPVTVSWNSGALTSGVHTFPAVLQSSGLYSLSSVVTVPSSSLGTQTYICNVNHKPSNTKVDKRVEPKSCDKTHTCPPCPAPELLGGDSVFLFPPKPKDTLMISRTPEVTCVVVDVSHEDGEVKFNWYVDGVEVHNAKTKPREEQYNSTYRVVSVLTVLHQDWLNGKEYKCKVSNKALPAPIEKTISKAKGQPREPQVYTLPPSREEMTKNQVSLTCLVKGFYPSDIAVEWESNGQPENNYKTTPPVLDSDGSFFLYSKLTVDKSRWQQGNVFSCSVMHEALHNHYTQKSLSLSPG
light: DIVMTQTPLSLPVTPGEPASISCRSSQSLVHSNANTYLHWYLQKPGQSPQLLIYKLTNRFFGVPDRFSGSGSGTDFTLKISRVEAEDVGVYYCSQSIHVPWTFGGGTKVEIKRTVAAPSVFIFPPSDEQLKSGTASVVCLLNNFYPREAKVQWKVDNALQSGNSQESVTEQDSKDSTYSLSSTLTLSKADYEKHKVYACEVTHQGLSSPVTKSFNRGEC
binding result [3]: binds | binding result [4]: binds | binding result [5]: binds

B3: 5F11-45 V9 D270E (antibody, human IgG1, kappa)
heavy: QVQLVQSGAEVKKPGSSVKVSCKASGYTFTDLSMHWVRQAPGQGLEWMGYITPSSGYTAYNQKFKGKTTLTADKSTSTAYMELSSLRSEDTAVYYCARLILQRGAYWGQGTLVTVSSASTKGPSVFPLAPSSKSTSGGTAALGCLVKDYFPEPVTVSWNSGALTSGVHTFPAVLQSSGLYSLSSVVTVPSSSLGTQTYICNVNHKPSNTKVDKRVEPKSCDKTHTCPPCPAPELLGDDSVFLFPPKPKDTLMISRTPEVTCVVVDVSHEEGEVKFNWYVDGVEVHNAKTKPREEQYNSTYRVVSVLTVLHQDWLNGKEYKCKVSNKALPRPIEKTISKAKGQPREPQVYTLPPSREEMTKNQVSLTCLVKGFYPSDIAVEWESNGQPENNYKTTPPVLDSDGSFFLYSKLTVDKSRWQQGNVFSCSVMHEALHNHYTQKSLSLSPG
light: DIVLTQSPDSLAVSLGERATINCRASKNVDSYGNSFMHWYQQKPGQPPKLLIYRASNLESGVPDRFSGSGSGTDFTLTISSLQAEDVAVYYCQQSNEDPLTFGQGTKLEIKRTVAAPSVFIFPPSDEQLKSGTASVVCLLNNFYPREAKVQWKVDNALQSGNSQESVTEQDSKDSTYSLSSTLTLSKADYEKHKVYACEVTHQGLSSPVTKSFNRGEC
binding result [6]: binds | binding result [3]: binds | binding result [4]: binds

B4: 5F11-45-V9-DQ-sup (antibody, human IgG1, kappa)
heavy chain: QVQLVQSGAEVKKPGSSVKVSCKASGYTFTDLSMHWVRQAPGQGLEWMGYITPSSGYTAYNQKFKGKTTLTADKSTSTAYMELSSLRSEDTAVYYCARLILQRGAYWGQGTLVTVSSASTKGPSVFPLAPSSKSTSGGTAALGCLVKDYFPEPVTVSWNSGALTSGVHTFPAVLQSSGLYSLSSVVTVPSSSLGTQTYICNVNHKPSNTKVDKRVEPKSCDKTHTCPPCPAPELLGDDSVFLFPPKPKDTLMISRTPEVTCVVVDVSHEQGEVKFNWYVDGVEVHNAKTKPREEQYNSTYRVVSVLTVLHQDWLNGKEYKCKVSNKALPRPIEKTISKAKGQPREPQVYTLPPSREEMTKNQVSLTCLVKGFYPSDIAVEWESNGQPENNYKTTPPVLDSDGSFFLYSKLTVDKSRWQQGNVFSCSVMHEALHNHYTQKSLSLSPG
light chain: DIVLTQSPDSLAVSLGERATINCRASKNVDSYGNSFMHWYQQKPGQPPKLLIYRASNLESGVPDRFSGSGSGTDFTLTISSLQAEDVAVYYCQQSNEDPLTFGQGTKLEIKRTVAAPSVFIFPPSDEQLKSGTASVVCLLNNFYPREAKVQWKVDNALQSGNSQESVTEQDSKDSTYSLSSTLTLSKADYEKHKVYACEVTHQGLSSPVTKSFNRGEC
notes: Tested as supernatant of antibody-producing cells; also called 5F11-45 V9 D270Q
binding result [6]: binds | binding result [3]: binds | binding result [4]: binds

B5: 5F11-45-V9-DA-sup (antibody, human IgG1, kappa)
heavy chain: QVQLVQSGAEVKKPGSSVKVSCKASGYTFTDLSMHWVRQAPGQGLEWMGYITPSSGYTAYNQKFKGKTTLTADKSTSTAYMELSSLRSEDTAVYYCARLILQRGAYWGQGTLVTVSSASTKGPSVFPLAPSSKSTSGGTAALGCLVKDYFPEPVTVSWNSGALTSGVHTFPAVLQSSGLYSLSSVVTVPSSSLGTQTYICNVNHKPSNTKVDKRVEPKSCDKTHTCPPCPAPELLGDDSVFLFPPKPKDTLMISRTPEVTCVVVDVSHEAGEVKFNWYVDGVEVHNAKTKPREEQYNSTYRVVSVLTVLHQDWLNGKEYKCKVSNKALPRPIEKTISKAKGQPREPQVYTLPPSREEMTKNQVSLTCLVKGFYPSDIAVEWESNGQPENNYKTTPPVLDSDGSFFLYSKLTVDKSRWQQGNVFSCSVMHEALHNHYTQKSLSLSPG
light chain: DIVLTQSPDSLAVSLGERATINCRASKNVDSYGNSFMHWYQQKPGQPPKLLIYRASNLESGVPDRFSGSGSGTDFTLTISSLQAEDVAVYYCQQSNEDPLTFGQGTKLEIKRTVAAPSVFIFPPSDEQLKSGTASVVCLLNNFYPREAKVQWKVDNALQSGNSQESVTEQDSKDSTYSLSSTLTLSKADYEKHKVYACEVTHQGLSSPVTKSFNRGEC
notes: Tested as supernatant of antibody-producing cells; also called 5F11-45 V9 D270A
binding result [6]: binds | binding result [3]: binds | binding result [4]: binds

B6: 5F11-45-V9-DS-sup (antibody, human IgG1, kappa)
heavy chain: QVQLVQSGAEVKKPGSSVKVSCKASGYTFTDLSMHWVRQAPGQGLEWMGYITPSSGYTAYNQKFKGKTTLTADKSTSTAYMELSSLRSEDTAVYYCARLILQRGAYWGQGTLVTVSSASTKGPSVFPLAPSSKSTSGGTAALGCLVKDYFPEPVTVSWNSGALTSGVHTFPAVLQSSGLYSLSSVVTVPSSSLGTQTYICNVNHKPSNTKVDKRVEPKSCDKTHTCPPCPAPELLGDDSVFLFPPKPKDTLMISRTPEVTCVVVDVSHESGEVKFNWYVDGVEVHNAKTKPREEQYNSTYRVVSVLTVLHQDWLNGKEYKCKVSNKALPRPIEKTISKAKGQPREPQVYTLPPSREEMTKNQVSLTCLVKGFYPSDIAVEWESNGQPENNYKTTPPVLDSDGSFFLYSKLTVDKSRWQQGNVFSCSVMHEALHNHYTQKSLSLSPG
light chain: DIVLTQSPDSLAVSLGERATINCRASKNVDSYGNSFMHWYQQKPGQPPKLLIYRASNLESGVPDRFSGSGSGTDFTLTISSLQAEDVAVYYCQQSNEDPLTFGQGTKLEIKRTVAAPSVFIFPPSDEQLKSGTASVVCLLNNFYPREAKVQWKVDNALQSGNSQESVTEQDSKDSTYSLSSTLTLSKADYEKHKVYACEVTHQGLSSPVTKSFNRGEC
notes: Tested as supernatant of antibody-producing cells; also called 5F11-45 V9 D270S
binding result [6]: binds | binding result [3]: binds | binding result [4]: binds
